# Results reported in patent US20110158954A1, “METHOD FOR PRODUCING GAMMA DELTA T CELL POPULATION” (priority 2007, published 2011).
# B1: H296-H296: modified fibronectin fragment in which two H-296's are connected to each other (SEQ ID NO: 22) (protein)
# chain: AIPAPTDLKFTQVTPTSLSAQWTPPNVQLTGYRVRVTPKEKTGPMKEINLAPDSSSVVVSGLMVATKYEVSVYALKDTLTSRPAQGVVTTLENVSPPRRARVTDATETTITISWRTKTETITGFQVDAVPANGQTPIQRTIKPDVRSYTITGLQPGTDYKIYLYTLNDNARSSPVVIDASTAIDAPSNLRFLATTPNSLLVSWQPPRARITGYIIKYEKPGSPPREVVPRPRPGVTEATITGLEPGTEYTIYVIALKNNQKSEPLIGRKKTDELPQLVTLPHPNLHGPEILDVPSTAMAIPAPTDLKFTQVTPTSLSAQWTPPNVQLTGYRVRVTPKEKTGPMKEINLAPDSSSVVVSGLMVATKYEVSVYALKDTLTSRPAQGVVTTLENVSPPRRARVTDATETTITISWRTKTETITGFQVDAVPANGQTPIQRTIKPDVRSYTITGLQPGTDYKIYLYTLNDNARSSPVVIDASTAIDAPSNLRFLATTPNSLLVSWQPPRARITGYIIKYEKPGSPPREVVPRPRPGVTEATITGLEPGTEYTIYVIALKNNQKSEPLIGRKKTDELPQLVTLPHPNLHGPEILDVPST
# modifications: Fibronectin fragment named H296-H296
# How the values were obtained:
# γδ T cells [1] = test: Expansion of γδ T cell population using pamidronate, CH-296 plate (Example 3); assay type: cell-based; details: human PBMCs; IMDM; pamidronate 5 μM; immobilized CH-296; day 14
# Experimental: The expansion was carried out in the same manner as Example 2, except that a plate immobilized with CH-296 prepared in Example 1-(2) was used.
# The ratio of the γδ T cells was analyzed according to flow cytometry for PBMCs prepared in Example 1-(1) and the cells on the fourteenth day from the initiation of culture prepared in Example 3-(1), in the same manner as in Example 1-(4). As a result, the ratio of γδ T cells was 8.9% for the PBMCs, and the ratio was from 96.0 to 96.9% for the cells on the fourteenth day from the initiation of culture.
# The number of live cells was counted according to trypan blue staining method for the cells on the fourteenth day from the initiation of culture prepared in Example 3-(1). The expansion fold of γδ T cells was calculated in comparison of the counted number with the number of γδ T cells at the initiation of culture, in the same manner as in Example 1-(5).
# Daudi cells = test: Cytotoxic activity of cultured γδ T cell population, Calcein-AM release; assay type: cell-based, human; details: γδ T cells expanded 14 days with pamidronate on immobilized FN fragment; target cells Daudi; E/T 30; 4 hours
# Experimental: The cytotoxic activity was determined for the cells on the fourteenth day from the initiation of culture prepared in Example 3-(1). The cytotoxic activity was evaluated by a method for assaying cytotoxic activity using Calcein-AM [Lichtenfels R. et al., J. Immunol. Methods 172(2), 227-239 (1994)]. […]
# The cells on the fourteenth day from the initiation of culture prepared in Example 3-(1) were diluted with an RPMI 1640 medium containing 5% (v/v) human AB serum, 0.1 mM NEAA mixture, 1 mM sodium pyruvate (all manufactured by Cambrex), 2 mM L-glutamine, 10 μg/mL streptomycin sulfate (hereinafter referred to as “5HRPMI”) as effector cells, so as to have a concentration of 3×10^6 cells/mL. […] Upon the addition, the ratio of the effector cells (E) to the Calcein-labeled target cells (T) is expressed as an E/T ratio, and the measurements were made at an E/T ratio of 30. […] Thereafter, 100 μL of the culture supernatant was collected from each well, and the amount of Calcein released into the culture supernatant was determined with a fluorescence plate reader (Mithras LB 940, manufactured by BERTHOLD TECHNOLOGIES) (excited at 485 nm/measured at 535 nm). The “cytotoxic activity (%)” was calculated in accordance with the following formula.
# Cytotoxic Activity (%)={(Measured Value in Each Well−Minimum Released Amount)/(Maximum Released Amount−Minimum Released Amount)}×100 […]
# γδ T cells [2] = test: Expansion of γδ T cell population using zoledronate (Example 5); assay type: cell-based; details: human PBMCs; RPMI 1640, then 10HRPMI+L-Gln; stimulant zoledronate 1 μM for 48 hours; IL-2 100 U/mL; immobilized FN fragment; day 14
# Experimental: The immobilization of an FN fragment was carried out in the same manner as in Example 1-(2), provided that a 6-well cell culture plate was used as a plate to be immobilized, and that an ACD-A solution (pH 5.0) containing H296-H296 (final concentration: 3 μg/mL) was added in a volume of 1.2 mL/well each.
# PBMCs prepared in Example 1-(1) were suspended in an RPMI 1640 medium containing 0.25% (w/v) HSA so as to have a concentration of 1×10^6 cells/mL, to prepare a cell suspension. Thereafter, the above cells were added to a plate to which nothing was immobilized, or the plate immobilized with H296-H296 prepared in Example 5-(1), in a volume of 5 mL/well each. […]
# The ratio of γδ T cell was analyzed according to flow cytometry for PBMCs prepared in Example 1-(1) and the cells on the fourteenth day from the initiation of culture prepared in Example 5-(2), in the same manner as in Example 1-(4). […]
# The number of live cells was counted according to trypan blue staining method for the cells on the fourteenth day from the initiation of culture prepared in Example 5-(2). The expansion fold of γδ T cells was calculated in comparison of the counted number with the number of γδ T cells at the initiation of culture, in the same manner as in Example 1-(5).
Molecule,expansion fold of γδ T cells compared to control group (γδ T cells [1]),Cytotoxic Activity (%) (Daudi cells),Expansion Fold of γδ T Cells (Folds) Fourteenth Day of Culture (γδ T cells [2])
"CH-296: polypeptide comprising a cell binding domain, a heparin binding domain and a CS-1 domain of fibronectin (SEQ ID NO: 13)","high expansion fold of γδ T cells during the culture, as compared to that of the control group",33.23,
B1,,,×107.5 Folds
